B1: "Na(+)/H(+) exchange regulatory cofactor NHE-RF1" (Homo sapiens), O14745 (parent)
chain: MSADAAAGAPLPRLCCLEKGPNGYGFHLHGEKGKLGQYIRLVEPGSPAEKAGLLAGDRLVEVNGENVEKETHQQVVSRIRAALNAVRLLVVDPETDEQLQKLGVQVREELLRAQEAPGQAEPPAAAEVQGAGNENEPREADKSHPEQRELRPRLCTMKKGPSGYGFNLHSDKSKPGQFIRSVDPDSPAEASGLRAQDRIVEVNGVCMEGKQHGDVVSAIRAGGDETKLLVVDRETDEFFKKCRVIPSQEHLNGPLPVPFTNGEIQKENSREALAEAALESPRPALVRSASSDTSEELNSQDSPPKQDSTAPSSTSSSDPILDFNISLAMAKERAHQKRSSKRAPQMDWSKKNELFSNL

Variants of B1 are the subject of this assay. The settings on record: with CFTR.
Turning to E353A, the “effect of a mutation on the interaction” value was “decreasing interaction”.

The values are drawn from IntAct's records for PubMed 19446522.
